Assay results taken from US20200199244A1 (published 2020).
Numbering of substitutions follows the chain as printed.

B1: BMS3h-88 (other)
VH: EVQLLESGGGLVQPGGSLRLSCAASGFTFHETEMTWVRQAPGKGLEWVSAINRLGQDTYYADSVKGRFTISRDNSKNTLYLQMNSLRAEDTAVYYCAKGRIPGLVFDYWGQGTLVTVSS
B2: BMS3h-61 (other)
VH: EVQLLESGGGLVQPGGSLRLSCAASGFTFGTTEMAWVRQAPGKGLEWVSSIGSAGAWTYYADSVKGRFTISRDNSKNTLYLQMNSLRAEDTAVYYCAKIGGHPQGQFDYWGQGTLVTVSS
B3: BMS3h-33 (other)
VH: EVQLLESGGGLVQPGGSLRLSCAASGFTFLSYPMHWVRQAPGKGLEWVSSIDSRGSVTYYADSVKGRFTISRDNSKNTLYLQMNSLRAEDTAVYYCAKGHSWTFDYWGQGTLVTVSS
B4: BMS3h-38-1 (other)
VH: EVQLLGSGGGLVQPGGSLRLSCAASGFTFEEEEMIWVRQAPGKGLEWVSAISGSGGSTYYADSVKGRFTISRDNSKNTLYLQMNSLRAEDTAVYYCSKEPFRFDYWGQGTLVTVSS
B5: BMS3h-38-211 (other)
VH: B4 VH with G6A, G53R, S54Q, S97G, F103Y
B6: BMS3h-38-201 (other)
VH: B4 VH with G6A, S97G, R102Y, F103Y
B7: BMS3h-38-205 (other)
VH: B4 VH with G6A, E30F, E31A, E32A, S97G, F103Y
B8: BMS3h-56-8 (other)
VH: EVQLLESGGGLVQPGGSRRLSCAASGFTFRDYEMWWVRQAPGKGLERVSAINPQGTRTYYADSVKGRFTISRDNSKNTLYLQMNSLRAEDTAVYYCAKLPFTFEDWGQGTLVTVSS
B9: BMS3h-56-19 (other)
VH: B8 VH with R18L, Y95H
B10: BMS3h-56-9 (other)
VH: B8 VH with R18L, K65M, T102M, E104D, W106R
B11: BMS3h-56-15 (other)
VH: B8 VH with R18L, Q39R
B12: BMS3h-56-21 (other)
VH: B8 VH with R18L, A97L
B13: BMS3h-5 (other)
VH: EVQLLESGGGLVQPGGSLRLSCAASGFTFDEHDMSWVRQAPGKGLEWVSRIGPDGFHTYYADSVKGRFTISRDNSKNTLYLQMNSLRAEDTAVYYCAKGRIPTLHFDYWGQGTLVTVSS
B14: BMS3h-102 (other)
VH: B13 VH with D30S, H32A, D33E, S35N, G52T, P53T, F56D, H57S
B15: BMS3h-57 (other)
VH: EVQLLESGGGLVQPGGSLRLSCAASGFTFSHEDMTWVRQAPGKGLEWVSSISPNGWDTYYADSVKGRFTISRDNSKNTLYLQMNSLRAEDTAVYYCAKRTRSKFDYWGQGTLVTVSS
B16: BMS3h-208 (other)
VH: B15 VH with S30P, H31E, E32S, T35K, R99P, T100A, R101Q, S102V, K103L
B17: BMS3h-131-6 (other)
VL: DIQMTVSPSSLSASVGDRVTITCRANSSILWALAWYQQKPGKAPKLLIESSSGLQSGVPSRFSGSGSGTDFTLTISSLQPEDFATYYCVQNAVWPGTFGQGTKVEIKR
B18: BMS3h-131-14 (other)
VL: B17 VL with V6Q, S67T, S77G, G99D
B19: BMS3h-207 (other)
VH: EVQLLESGGGLVQPGGSLRLSCAASGFTFSNQDMTWVRQAPGKGLEWVSSIDSSGQLTYYADSVKGRFTISRDNSKNTLYLQMNSLRAEDTAVYYCAKVKSLARFDYWGQGTLVTVSS
B20: BMS3h-48 (other)
VH: EVQLLESGGGLVQPGGSLRLSCAASGFTFADHGMTWVRQAPGKGLEWVSGIGPSGEATYYADSVKGRFTISRDNSKNTLYLQMNSLRAEDTAVYYCAKDRIPNLVFDYWGQGTLVTVSS
B21: BMS3h-52 (other)
VH: EVQLLESGGGLVQPGESLRLSCAASGFTFSAYDMTWVRQAPGKGLEWVSRINPTGSYTYYADSVKGRFTISRDNSKNTLYLQMNSLRAEDTAVYYCAKAKIPNLVFDYWGQGTLVTVSS
B22: BMS3h-37-1 (other)
VH: EVQLLESGGGLVQPGGSLRLSCAASGFTFEWYEMQWVRQAPGKGLEWVSAISGDGYRTYYADSVKGRFTISRDNSMNTLYLQMNSLRAEDTAVYYCAKELGYFDYRGRGTLVTVSS
B23: BMS3h-37-11 (other)
VH: B22 VH with Q39K, M76K
B24: BMS3h-37-212 (other)
VH: B22 VH with Q13R, Q39R, M76K, G101E, Y102F, R106W
B25: BMS3h-37-213 (other)
VH: B22 VH with Q39R, M76K, G101L, Y102F
B26: BMS3h-37-202 (other)
VH: B22 VH with Q39R, Y56W, M76K, R106W
B27: BMS3h-37-207 (other)
VH: B22 VH with Q39R, M76K, G101A, Y102F, R106W
B28: BMS3h-37-206 (other)
VH: B22 VH with Q39R, M76K, E99G, G101E, R106W
B29: BMS3h-37-205 (other)
VH: B22 VH with Q39R, M76K, G101E, R106W
B30: BMS3h-8 (other)
VH: EVQLLESGGGLVQPGGSLRLSCAASGFTFPSEEMSWVRQAPGKGLEWVSRISADGANTYYADSVKGRFTISRDNSKNTLYLQMNSLRAEDAAVYYCAKGRVPDLLFDYWGQGTLVTVSS
B31: BMS3h-193 (other)
VL: DIQMTQSPSSLSASVGDRVTITCRASQTIERRLNWYQQKPGKAPKLLIYLASRLQSGVPSRFSGSGSGTDFTLTISSLQPEDFATYYCHQYASPPLTFGQGTKVEIKR
B32: BMS3h-193-19 (other)
VL: B31 VL with D70E, A92E
B33: BMS3h-193-12 (other)
VL: B31 VL with A92E
B34: BMS3h-193-16 (other)
VL: B31 VL with T28A, F98L
B35: BMS3h-112 (other)
VH: EVQLLESGGGLVQPGGSLRLSCAASGFTFGESDMKWVRQAPGKGLEWVSSISPNGWDTYYADSVKGRFTISRDNSKNTLYLQMNSLRAEDTAVYYCAKSPSSRLKFDYWGQGTLVTVSS
B36: BMS3h-28 (other)
VH: EVQLLESGGGLVQPGGSLRLSCAASGFTFGDVPMSWVRQAPGKGLEWVSRIDPYGSNTYYADSVKGRFTISRDNSKNTLYLQMNSLRAEDTAVYYCAKGIMPSLTFDYWGQGTLVTVSS

Target: human CD40 (human, UniProt P25942 21-277)
Assay: cell-based or functional assay

human CD40, sequence (P25942 21-277 limits assumed): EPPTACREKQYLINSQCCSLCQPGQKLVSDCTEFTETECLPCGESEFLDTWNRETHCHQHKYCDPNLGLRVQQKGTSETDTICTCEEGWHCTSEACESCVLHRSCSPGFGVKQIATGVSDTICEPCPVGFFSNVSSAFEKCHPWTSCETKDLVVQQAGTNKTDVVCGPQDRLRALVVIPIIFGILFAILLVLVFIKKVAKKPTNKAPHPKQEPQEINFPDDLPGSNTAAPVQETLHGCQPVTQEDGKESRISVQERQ

| Binder | hIZCD40L-driven Human B Cell Proliferation EC50 [nM] | CHO-hCD40L-driven Human B Cell Proliferation EC50 [µM] | CHO-hCD40L-driven DC Activation IL-12 EC50 [nM] | T-B cell MLR EC50 [nM] |
| --- | --- | --- | --- | --- |
| B1 | > 7000 | – | – | – |
| B2 | > 7000 | > 7 | – | – |
| B3 | > 7000 | > 7 | – | – |
| B4 | 142 | – | – | – |
| B5 | 2 | 0.082 | 18 | 200 |
| B6 | > 70 | > 7 | > 800 | – |
| B7 | 4 | 1.1 | 29 | – |
| B8 | 5 | – | – | – |
| B9 | 3 | – | – | – |
| B10 | 3 | – | – | – |
| B11 | 2 | – | – | – |
| B12 | 2 | – | – | – |
| B13 | > 7000 | > 7 | – | – |
| B14 | > 7000 | – | – | – |
| B15 | > 7000 | > 7 | – | – |
| B16 | > 7000 | – | – | – |
| B17 | 141 | – | – | – |
| B18 | 24 | – | – | – |

| Binder | hIZCD40L-driven Human B Cell Proliferation EC50 [nM] | CHO-hCD40L-driven Human B Cell Proliferation EC50 [µM] | CHO-hCD40L-driven DC Activation IL-12 EC50 [nM] | T-B cell MLR EC50 [nM] |
| --- | --- | --- | --- | --- |
| B19 | > 7000 | – | – | – |
| B20 | > 7000 | > 7 | – | – |
| B21 | > 7000 | > 7 | – | – |
| B22 | 250 | – | – | – |
| B23 | 8 | – | – | – |
| B24 | 1 | – | – | – |
| B25 | 0.7 | – | – | – |
| B26 | 0.6 | – | 10 | 83 |
| B27 | 4 | – | 15.5 | – |
| B28 | 5 | – | 23 | – |
| B29 | 2 | – | 6.6 | – |
| B30 | > 7000 | > 7 | – | – |
| B31 | > 7000 | – | – | – |
| B32 | 233 | – | – | – |
| B33 | 277 | – | – | – |
| B34 | 387 | – | – | – |
| B35 | > 7000 | – | – | – |
| B36 | > 7000 | > 7 | – | – |
